Reference: PMC11621151

How the values were obtained:
Assay in all cases: SPR
[1] = target: rat neonatal Fc receptor (FcRn) (rat) (UniProt P13599)
[2] = target: rabbit neonatal Fc receptor (FcRn) (rabbit)
[3] = target: monkey neonatal Fc receptor (FcRn) (monkey) (UniProt Q8SPV9)
[4] = target: mouse neonatal Fc receptor (FcRn) (mouse) (UniProt Q61559)
[5] = target: human neonatal Fc receptor (FcRn) (human) (UniProt P55899)

Kd [1]: 1.89 nM
Kd [2]: 310 nM
Kd [3]: 14.5 nM
Kd [4]: 0.63 nM
Kd [5]: 8.56 nM
Substance: Efgartigimod (domain or fragment)
